These results are taken from patent US20250129146A1, “COMBINED CANCER THERAPY WITH AN EPITHELIAL CELL ADHESION MOLECULE (EPCAM) INHIBITOR AND A WNT INHIBITOR” (ACADEMIA SINICA, priority 2021, published 2025).

This assay concerns the target T1, recombinant FZD6 (Homo sapiens, UniProt O60353).
T1 construct: purchased Proteintech
T1 sequence (O60353 19-706): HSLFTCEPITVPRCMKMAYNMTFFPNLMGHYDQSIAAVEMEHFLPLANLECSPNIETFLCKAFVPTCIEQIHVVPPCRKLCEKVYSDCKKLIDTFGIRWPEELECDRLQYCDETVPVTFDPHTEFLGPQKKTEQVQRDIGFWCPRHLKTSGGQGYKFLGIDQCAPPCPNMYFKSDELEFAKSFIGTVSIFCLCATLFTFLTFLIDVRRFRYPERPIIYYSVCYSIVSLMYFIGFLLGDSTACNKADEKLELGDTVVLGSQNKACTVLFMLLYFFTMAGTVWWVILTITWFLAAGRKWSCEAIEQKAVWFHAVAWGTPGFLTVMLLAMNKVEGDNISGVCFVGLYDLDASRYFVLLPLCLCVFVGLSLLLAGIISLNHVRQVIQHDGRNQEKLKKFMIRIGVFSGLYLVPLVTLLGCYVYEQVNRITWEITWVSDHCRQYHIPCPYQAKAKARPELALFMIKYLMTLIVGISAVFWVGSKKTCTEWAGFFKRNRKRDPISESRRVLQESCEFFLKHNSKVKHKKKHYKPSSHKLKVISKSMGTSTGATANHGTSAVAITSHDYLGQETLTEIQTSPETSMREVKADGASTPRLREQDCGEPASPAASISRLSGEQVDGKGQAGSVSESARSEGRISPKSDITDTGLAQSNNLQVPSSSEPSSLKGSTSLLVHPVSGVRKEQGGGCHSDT
Put plainly: ELISA of EpEX binding to Wnt receptor-coated plates (FZD6). To be noted: EpEX-His alone, 2 hours; optical density at 450 nm. The procedure:
For ELISA, wells (at least 6 wells per single protein) were coated with recombinant FZD6 (Proteintech), recombinant FZD7 (Proteintech), recombinant LRP5 (Proteintech), recombinant LRP6 (Proteintech) overnight at 4° C. The wells were then blocked with 1% BSA and treated with EpEX-his (Produced in house by Expi293 Expression System) for 2 hours. Otherwise, EpEX-His was incubated with EpAb2-6 overnight and the complex was used to treat the protein-coated plates for 2 hours. Further anti-His antibody (abeam) was used and TMB was performed to record optical density at 450 nm.
(In an ELISA, binding on a coated surface is turned into a signal by an enzyme label.)

B1: EpEX: extracellular domain of EpCAM, produced in house by Expi293 Expression System (protein)
chain: QEECVCENYKLAVNCFVNNNRQCQCTSVGAQNTVICSKLAAKCLVMKAEMNGSKLGRRAKPEGALQNNDGLYDPDCDESGLFKAKQCNGTSMCWCVNTAGVRRTDKDTEITCSERVRTYWIIIELKHKAREKPYDSKSLRTALQKEITTRYQLDPKFITSILYENNVITIDLVQNSSQKTQNDVDIADVAYYFEKDVKGESLFHSKKMDLTVNGEQLDLDPGQTLIYYVDEKAPEFSMQGLKAGVIAVIVVVVIAVVAGIVVLVISRKKRMAKYEKAEIKEMGEMHRELNA
On to B1, for which the “EpEX binding to FZD6” value is reported as “bind with all receptor proteins”.
